One test has as its system GLIC–Glyα1–ICD chimeras. The experiment in a line: Proton concentration–response. Conditions: proton activation (pH50), GLIC–Glyα1–ICD set, TEVC, −60 mV, ± standard error. Type of test: cell-based, G. violaceus GLIC / rat Glyα1.
In test [1] the test system is GLIC–GABAAρ1–ICD chimeras. The test is described as follows: Proton concentration–response. Type of test: cell-based, G. violaceus GLIC / human GABAAρ1. Particulars: proton activation (pH50), GLIC–GABAAρ1–ICD set, TEVC, −60 mV, ± standard error.
A further test deals with GLIC–nAChα7–ICD chimeras. The experiment in a line: Proton concentration–response. Type of test: cell-based, G. violaceus GLIC / human nAChRα7. Conditions: proton activation (pH50), GLIC–nAChα7–ICD set, TEVC, −60 mV, ± standard error.
For test [2], the system named is GLIC–nAChα7–ICD chimeras and wild-type GLIC. Type of test: cell-based, G. violaceus GLIC / human nAChRα7. Particulars: pH 7.5 to 5, after 48 h.

Here are results for 1 molecule from publication PMC4414916 (Biochemistry, 2015).

B1: WT GLIC: wild-type Gloeobacter violaceus proton-gated pentameric ligand-gated ion channel (protein)
chain: QDMVSPPPPIADEPLTVNTGIYLIECYSLDDKAETFKVNAFLSLSWKDRRLAFDPVRSGVRVKTYEPEAIWIPEIRFVNVENARDADVVDISVSPDGTVQYLERFSARVLSPLDFRRYPFDSQTLHIYLIVRSVDTRNIVLAVDLEKVGKNDDVFLTGWDIESFTAVVKPANFALEDRLESKLDYQLRISRQYFSYIPNIILPMLFILFISWTAFWSTSYEANVTLVVSTLIAHIAFNILVETNLPKTPYMTYTGAIIFMIYLFYFVAVIEVTVQHYLKVESQPARAASITRASRIAFPVVFLLANIILAFLFFGF
modifications: left off: FLAG, C-terminal, state not stated
As to B1, the “−log EC50” value (with GLIC–Glyα1–ICD chimeras; in test [1]; in the test on GLIC–nAChα7–ICD chimeras) was 5.81 ± 0.05 each time. Also, the “effect of RIC-3 co-expression on current amplitudes” value in test [2] is given as “did not alter”.
